According to patent publication US6852319 (Scripps Research, dated 2005):

B1: rabbit secretory component (SC) construct expressed in tobacco (receptor)
chain: QSSLLGPSSIFGPGEVNVLEGDSVSITCYYPTTSVTRHSRKFWCREEESGRCVTLASTGYTSQEYSGRGKLTDFPDKGEFVVTVDQLTQNDSGSYKCGVGVNGRGLDFGVNVLVSQKPEPDDVVYKQYESYTVTITCPFTYATRQLKKSFYKVEDGELVLIIDSSSKEAKDPRYKGRITLQIQSTTAKEFTVTIKHLQLNDAGQYVCQSGSDPTAEEQNVDLRLLTPGLLYGNLGGSVTFECALDSEDANAVASLRQVRGGNVVIDSQGTIDPAFEGRILFTKAENGHFSVVIAGLRKEDTGNYLCGVQSNGQSGDGPTQLRQLFVNEEIDVSRSPPVLKGFPGGSVTIRCPYNPKRSDSHLQLYLWEGSQTRHLLVDSGEGLVQKDYTGRLALFEEPGNGTFSVVLNQLTAEDEGFYWCVSDDDESLTTSVKLQIVDGEPSPTIDKFTAVQGEPVEITCHFPCKYFSSEKYWCKWNDHGCEDLPTKLSSSGDLVKCNNNLVLTLTLDSVSEDDEGWYWCGAKDGHEFEEVAAVRVELTEPAKVAVEPAKVPVDPAKAAPAPAEEKAKARCPVPRRRQWYPLSRKLRTSCPEPRLLAEEVAVQSAE
notes: also called rabbit SC
B2: mouse J chain expressed in tobacco (other)
chain: GDDEATILADNKCMCTRVTSKIIPSTEDPNEDIVERNIRIVVPLNNRENISDPTSPLRRNFVYHLSDVCKKCDPVEVELEDQVVTATQSNICNEDDGVPETCYMYDRNKCYTTMVPLRYHGETKMVQAALTPDSCYPD
notes: also called joining chain

Tests used:
[1] = target: T1, purified 185 kD streptococcal antigen (SA) I/II cell surface adhesion molecule (Streptococcus mutans, UniProt P23504 39-1532); assay: ELISA of plant leaf extract on purified SA I/II coated plates
T1 construct: also called purified SA; streptococcal antigen I/II
T1 sequence (looked up): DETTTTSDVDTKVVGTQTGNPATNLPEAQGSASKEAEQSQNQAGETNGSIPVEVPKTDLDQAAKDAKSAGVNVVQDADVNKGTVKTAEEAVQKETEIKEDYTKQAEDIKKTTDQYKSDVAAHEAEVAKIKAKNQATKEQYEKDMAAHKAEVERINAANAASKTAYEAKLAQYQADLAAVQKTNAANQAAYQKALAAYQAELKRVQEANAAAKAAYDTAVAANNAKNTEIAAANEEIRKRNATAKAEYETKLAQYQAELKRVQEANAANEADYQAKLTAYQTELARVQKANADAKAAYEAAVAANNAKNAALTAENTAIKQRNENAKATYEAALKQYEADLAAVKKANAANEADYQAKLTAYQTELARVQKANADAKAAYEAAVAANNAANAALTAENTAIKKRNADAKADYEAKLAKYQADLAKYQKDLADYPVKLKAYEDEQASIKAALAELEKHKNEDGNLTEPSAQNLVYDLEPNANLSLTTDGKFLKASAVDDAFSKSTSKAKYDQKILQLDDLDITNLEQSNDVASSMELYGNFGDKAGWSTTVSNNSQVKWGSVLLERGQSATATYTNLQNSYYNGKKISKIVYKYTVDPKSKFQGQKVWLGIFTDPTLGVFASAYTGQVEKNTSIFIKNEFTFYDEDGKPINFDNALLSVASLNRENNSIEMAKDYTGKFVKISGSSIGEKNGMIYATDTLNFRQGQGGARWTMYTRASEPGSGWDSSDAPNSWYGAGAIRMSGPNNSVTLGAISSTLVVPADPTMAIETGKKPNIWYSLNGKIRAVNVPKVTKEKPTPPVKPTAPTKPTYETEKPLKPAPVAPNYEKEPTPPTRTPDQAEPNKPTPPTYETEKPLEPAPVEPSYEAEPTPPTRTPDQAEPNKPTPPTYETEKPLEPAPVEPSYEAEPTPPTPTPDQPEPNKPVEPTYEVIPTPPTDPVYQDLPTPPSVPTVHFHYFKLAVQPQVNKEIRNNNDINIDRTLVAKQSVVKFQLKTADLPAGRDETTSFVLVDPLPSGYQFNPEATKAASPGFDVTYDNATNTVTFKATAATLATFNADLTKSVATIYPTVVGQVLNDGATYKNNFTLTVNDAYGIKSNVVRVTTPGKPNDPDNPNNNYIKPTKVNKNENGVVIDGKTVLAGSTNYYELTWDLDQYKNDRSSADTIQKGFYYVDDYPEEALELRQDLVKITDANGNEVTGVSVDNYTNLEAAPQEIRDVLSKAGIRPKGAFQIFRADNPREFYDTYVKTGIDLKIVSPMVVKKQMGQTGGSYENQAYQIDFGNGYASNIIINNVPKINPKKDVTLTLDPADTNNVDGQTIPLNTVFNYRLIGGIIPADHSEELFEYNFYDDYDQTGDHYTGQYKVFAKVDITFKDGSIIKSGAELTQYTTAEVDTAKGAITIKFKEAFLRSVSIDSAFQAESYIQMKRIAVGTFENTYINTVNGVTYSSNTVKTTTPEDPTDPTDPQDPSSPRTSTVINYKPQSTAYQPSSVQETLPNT

[2] = target: dIgA-G, plant-expressed dimeric IgA-G with mouse J chain (murine; mouse) (UniProt P01878); assay: initial estimate in extracts of SIgA-G plants (data not shown)
dIgA-G, plant-expressed dimeric IgA-G with mouse J chain (murine; mouse), sequence (P01878 116-344, form in doubt): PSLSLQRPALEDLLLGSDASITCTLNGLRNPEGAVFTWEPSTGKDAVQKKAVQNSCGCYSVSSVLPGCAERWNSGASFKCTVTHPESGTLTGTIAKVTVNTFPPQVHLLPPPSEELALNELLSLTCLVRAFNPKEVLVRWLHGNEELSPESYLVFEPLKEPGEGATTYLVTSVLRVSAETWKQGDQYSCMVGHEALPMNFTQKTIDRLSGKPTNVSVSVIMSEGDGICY

| Binder | binding result [1] | percent of SC associated with dimeric IgA-G [2] [%] |
| --- | --- | --- |
| B1 | no binding | 50 |
| B2 | no binding |  |
